Values of other authors in article PMC11741591.

Biological target: reelin receptors (ApoER2/VLDLR) (Homo sapiens) (UniProt Q14114)
UniProt Q14114, sequence (Q14114 33-826): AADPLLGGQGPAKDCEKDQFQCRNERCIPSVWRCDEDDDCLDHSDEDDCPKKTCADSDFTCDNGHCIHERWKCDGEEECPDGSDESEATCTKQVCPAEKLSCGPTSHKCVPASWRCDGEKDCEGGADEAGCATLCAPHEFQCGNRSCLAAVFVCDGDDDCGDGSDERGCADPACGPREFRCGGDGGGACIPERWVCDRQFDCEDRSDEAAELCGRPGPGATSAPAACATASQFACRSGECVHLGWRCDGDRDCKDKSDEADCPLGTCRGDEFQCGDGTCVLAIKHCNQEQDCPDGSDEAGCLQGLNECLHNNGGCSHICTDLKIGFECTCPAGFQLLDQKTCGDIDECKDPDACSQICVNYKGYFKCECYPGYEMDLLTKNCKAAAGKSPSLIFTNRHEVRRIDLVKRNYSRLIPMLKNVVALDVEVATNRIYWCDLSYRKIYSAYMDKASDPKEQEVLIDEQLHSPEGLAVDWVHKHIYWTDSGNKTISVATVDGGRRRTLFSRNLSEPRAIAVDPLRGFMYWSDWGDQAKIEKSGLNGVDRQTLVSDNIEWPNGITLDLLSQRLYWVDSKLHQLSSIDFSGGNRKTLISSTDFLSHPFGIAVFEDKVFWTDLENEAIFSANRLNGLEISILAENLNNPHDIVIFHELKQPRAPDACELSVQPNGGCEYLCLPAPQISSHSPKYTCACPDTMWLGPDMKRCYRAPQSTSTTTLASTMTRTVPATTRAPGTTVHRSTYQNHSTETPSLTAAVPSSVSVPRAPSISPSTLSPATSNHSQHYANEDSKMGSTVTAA

reelin, sequence (P78509 26-3460): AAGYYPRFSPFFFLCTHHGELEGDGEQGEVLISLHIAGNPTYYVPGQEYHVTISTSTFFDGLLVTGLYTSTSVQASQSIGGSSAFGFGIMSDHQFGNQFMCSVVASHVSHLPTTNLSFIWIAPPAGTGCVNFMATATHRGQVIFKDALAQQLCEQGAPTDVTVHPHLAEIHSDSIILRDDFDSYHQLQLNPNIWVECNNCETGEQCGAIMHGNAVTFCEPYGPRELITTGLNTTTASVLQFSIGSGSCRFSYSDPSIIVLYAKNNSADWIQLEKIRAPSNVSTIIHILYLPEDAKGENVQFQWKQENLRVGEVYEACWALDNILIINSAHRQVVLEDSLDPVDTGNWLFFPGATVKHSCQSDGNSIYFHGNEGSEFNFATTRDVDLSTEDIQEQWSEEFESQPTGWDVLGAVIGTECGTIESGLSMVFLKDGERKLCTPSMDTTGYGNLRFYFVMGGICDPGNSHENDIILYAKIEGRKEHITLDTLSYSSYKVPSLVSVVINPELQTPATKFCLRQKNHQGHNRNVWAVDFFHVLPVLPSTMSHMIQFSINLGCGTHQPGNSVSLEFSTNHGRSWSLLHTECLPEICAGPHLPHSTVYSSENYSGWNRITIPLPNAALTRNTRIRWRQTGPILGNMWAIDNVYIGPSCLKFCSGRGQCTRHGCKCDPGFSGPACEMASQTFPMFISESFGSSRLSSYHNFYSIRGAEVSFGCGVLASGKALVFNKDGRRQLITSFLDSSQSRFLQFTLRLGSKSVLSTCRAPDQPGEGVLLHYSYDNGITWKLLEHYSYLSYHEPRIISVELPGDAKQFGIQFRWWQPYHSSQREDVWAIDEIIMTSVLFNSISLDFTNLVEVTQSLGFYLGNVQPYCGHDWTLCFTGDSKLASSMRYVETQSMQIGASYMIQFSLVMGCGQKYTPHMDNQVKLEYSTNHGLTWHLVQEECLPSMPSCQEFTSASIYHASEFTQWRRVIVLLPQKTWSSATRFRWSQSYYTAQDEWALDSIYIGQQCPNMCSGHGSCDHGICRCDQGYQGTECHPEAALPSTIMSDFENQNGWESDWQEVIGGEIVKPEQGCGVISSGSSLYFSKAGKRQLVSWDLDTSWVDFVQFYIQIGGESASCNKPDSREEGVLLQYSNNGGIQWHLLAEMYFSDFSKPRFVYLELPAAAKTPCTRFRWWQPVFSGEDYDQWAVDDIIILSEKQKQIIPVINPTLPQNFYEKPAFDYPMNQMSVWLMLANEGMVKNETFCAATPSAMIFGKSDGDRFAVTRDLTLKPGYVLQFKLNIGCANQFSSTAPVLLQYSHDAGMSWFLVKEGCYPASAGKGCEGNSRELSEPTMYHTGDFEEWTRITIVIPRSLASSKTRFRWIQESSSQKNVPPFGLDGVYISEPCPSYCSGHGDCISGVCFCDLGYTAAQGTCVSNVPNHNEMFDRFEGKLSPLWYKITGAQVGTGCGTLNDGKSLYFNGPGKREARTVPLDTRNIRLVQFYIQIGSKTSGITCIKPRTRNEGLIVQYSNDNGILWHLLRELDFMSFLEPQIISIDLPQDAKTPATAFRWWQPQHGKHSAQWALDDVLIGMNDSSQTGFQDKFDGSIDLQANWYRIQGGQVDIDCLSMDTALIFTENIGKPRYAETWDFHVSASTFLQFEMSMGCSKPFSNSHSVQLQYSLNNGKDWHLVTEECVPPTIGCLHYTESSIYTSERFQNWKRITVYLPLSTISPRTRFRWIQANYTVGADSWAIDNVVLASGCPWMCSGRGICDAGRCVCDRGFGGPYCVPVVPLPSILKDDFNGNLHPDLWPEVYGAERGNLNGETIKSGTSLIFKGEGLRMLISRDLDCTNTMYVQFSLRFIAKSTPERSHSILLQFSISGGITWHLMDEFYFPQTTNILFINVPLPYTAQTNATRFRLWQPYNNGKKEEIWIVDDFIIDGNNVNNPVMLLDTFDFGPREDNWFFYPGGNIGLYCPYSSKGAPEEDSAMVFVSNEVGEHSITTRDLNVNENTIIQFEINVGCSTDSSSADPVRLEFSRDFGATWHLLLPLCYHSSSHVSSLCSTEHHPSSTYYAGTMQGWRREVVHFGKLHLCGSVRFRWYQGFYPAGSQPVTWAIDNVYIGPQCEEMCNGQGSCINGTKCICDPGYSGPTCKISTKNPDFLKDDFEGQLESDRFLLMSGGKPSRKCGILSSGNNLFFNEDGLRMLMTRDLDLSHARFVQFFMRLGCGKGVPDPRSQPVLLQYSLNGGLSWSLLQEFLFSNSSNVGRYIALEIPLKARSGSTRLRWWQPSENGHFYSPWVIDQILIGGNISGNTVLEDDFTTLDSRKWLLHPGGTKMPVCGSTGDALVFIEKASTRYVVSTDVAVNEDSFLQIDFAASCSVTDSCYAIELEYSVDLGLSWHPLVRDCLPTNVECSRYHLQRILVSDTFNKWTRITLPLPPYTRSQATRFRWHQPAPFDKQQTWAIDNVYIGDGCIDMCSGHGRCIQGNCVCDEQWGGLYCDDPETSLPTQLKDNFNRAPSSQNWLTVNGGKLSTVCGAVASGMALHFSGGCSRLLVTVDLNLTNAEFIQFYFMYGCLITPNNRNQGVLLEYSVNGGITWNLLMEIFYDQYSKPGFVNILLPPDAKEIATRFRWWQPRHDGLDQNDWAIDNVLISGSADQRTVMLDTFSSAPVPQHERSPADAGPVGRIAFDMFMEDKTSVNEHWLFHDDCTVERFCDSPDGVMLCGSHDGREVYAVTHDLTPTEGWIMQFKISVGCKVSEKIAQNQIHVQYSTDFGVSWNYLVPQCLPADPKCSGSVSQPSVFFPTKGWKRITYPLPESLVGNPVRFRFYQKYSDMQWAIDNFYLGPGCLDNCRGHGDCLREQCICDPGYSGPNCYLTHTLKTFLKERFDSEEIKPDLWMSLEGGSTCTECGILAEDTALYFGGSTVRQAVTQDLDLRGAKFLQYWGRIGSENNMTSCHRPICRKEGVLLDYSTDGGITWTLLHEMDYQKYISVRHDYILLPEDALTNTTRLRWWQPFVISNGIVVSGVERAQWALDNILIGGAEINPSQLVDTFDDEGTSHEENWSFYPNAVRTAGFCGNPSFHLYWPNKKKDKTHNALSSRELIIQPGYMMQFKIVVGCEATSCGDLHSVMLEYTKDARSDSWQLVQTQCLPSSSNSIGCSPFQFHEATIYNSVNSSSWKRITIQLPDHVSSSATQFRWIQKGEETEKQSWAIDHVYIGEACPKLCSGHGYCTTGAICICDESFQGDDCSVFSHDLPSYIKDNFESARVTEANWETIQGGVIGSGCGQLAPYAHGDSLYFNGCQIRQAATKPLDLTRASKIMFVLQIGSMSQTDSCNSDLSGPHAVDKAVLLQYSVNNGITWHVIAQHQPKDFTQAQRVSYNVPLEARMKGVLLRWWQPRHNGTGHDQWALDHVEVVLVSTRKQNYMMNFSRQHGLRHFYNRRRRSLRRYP

reelin (from UniProt P78509)
Kd: 0.5 nM
